Reference: patent US20130302399A1 (ALDERBIO, published 2013)
Changes are numbered by the printed parent chain. Each block holds one binder with its values, some of them ahead of it.

Target: T1, human Proprotein Convertase Subtilisin-like/Kexin type 9 (human, UniProt Q8NBP7 31-692, limits assumed)
T1 construct: Biotinylated in the ELISAs; unlabelled analyte in BLI and SPR; also called human PCSK9; PCSK9
Assay: SPR (ProteOn XPR36), biotinylated antibody on neutravidin chip, human PCSK9 as analyte, 1:1 fit, mean of 4 densities
Protocol: Binding affinities of monoclonal antibodies for PCSK9 were estimated using Surface Plasmon Resonance (SPR) on the ProteOn XPR36 (Bio-Rad). Biotinylated antibody was immobilized at progressively increasing densities to the surface of Neutravidin (NLC) Chips. A dilution series of human PCSK9 prepared in 1×HBS-EP+Buffer (10 mM Hepes; 150 mM NaCl; 3 mM EDTA, 0.05% Polysorbate 20; pH 7.6 at 25° C.) purchased from Thermo Scientific and supplemented with 0.2 mg/mL Bovine Serum Albumin (BSA) from Jackson ImmunoResearch and 0.005% sodium azide from VWR was used to query the antibodies. At our chosen concentrations of antigen (˜0.08 μg/mL-6.7 μg/mL) association times of 4 minutes and dissociation times of 30-120 minutes were used with the ProteOn Manager Software (v3.1.0.6, Bio-Rad) to group and fit data using a 1:1 Langmuir binding model. Surfaces were regenerated between analyte queries and after binding antibody to the surface using 10 mM Glycine pH 2.0. Data across 4 different densities were averaged and a single KD and standard propagation of error calculated for each antibody.

T1 sequence (Q8NBP7 31-692 limits assumed): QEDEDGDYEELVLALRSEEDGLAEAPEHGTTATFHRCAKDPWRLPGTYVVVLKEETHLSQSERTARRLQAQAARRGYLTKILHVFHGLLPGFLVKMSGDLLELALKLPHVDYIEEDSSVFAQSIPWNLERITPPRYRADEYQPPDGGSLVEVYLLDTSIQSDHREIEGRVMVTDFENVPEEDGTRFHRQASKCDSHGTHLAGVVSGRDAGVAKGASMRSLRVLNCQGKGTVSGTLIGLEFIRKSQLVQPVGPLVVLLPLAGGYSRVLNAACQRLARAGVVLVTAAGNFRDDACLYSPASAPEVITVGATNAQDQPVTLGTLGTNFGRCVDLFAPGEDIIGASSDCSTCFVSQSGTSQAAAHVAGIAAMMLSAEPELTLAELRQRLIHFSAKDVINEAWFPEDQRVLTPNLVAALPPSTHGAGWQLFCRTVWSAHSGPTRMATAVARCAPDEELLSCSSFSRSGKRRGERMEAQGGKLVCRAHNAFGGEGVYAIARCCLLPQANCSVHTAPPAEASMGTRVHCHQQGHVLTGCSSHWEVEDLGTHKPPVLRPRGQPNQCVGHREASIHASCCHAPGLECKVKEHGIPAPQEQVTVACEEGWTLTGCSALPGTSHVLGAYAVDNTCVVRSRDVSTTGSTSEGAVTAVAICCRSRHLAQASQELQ

- Kd: 0.49 nM
- koff: 0.000259 s⁻¹
- kon: 529000 M⁻¹ s⁻¹
B1: Ab22 (antibody, human IgG1, kappa, N297A, V domains shown)
VH: EVQLVESGGGLVQPGGSLRLSCAASGFSLSSYAMNWVRQAPGKGLEWIGAIRSSGATFFASSVNGRFTISRDNSKNTVYLQMNSLRAEDTAVYYCARDTNDGWYINRLDLWGQGTLVTVSS
VL: AVLTQSPSTLSASVGDRVTITCQSSKSVYSNYLSWFQQKPGKAPKFLIYKASTLASGVPSRFSGSGSGTEFTLTISSLQPDDFATYYCAGGDTNIADNAFGGGTKVEIKR
notes: also called antibody Ab22

- Kd: 0.61 nM
- koff: 0.000354 s⁻¹
- kon: 580000 M⁻¹ s⁻¹
B2: Ab21 (antibody, human IgG1, kappa, N297A, V domains shown)
VH: QSVEESGGRLVTPGTPLTLTCTVSGFSLSSYAMNWVRQAPGKGLEWIGAIRSSGATFFASWVNGRFTISKTSTTVDLKITSPTPEDTATYFCARDTNDGWYINRLDLWGPGTLVTVSS
VL: AAVLTQTPSPVSAAVGGTVSISCQSSKSVYSNYLSWFQQKPGQPPKFLIYKASTLASGVPSRFKGSGSGTQFTLTISDVQCDDAATYYCAGGDTNISDNAFGGGTEVVVKR
notes: also called antibody Ab21

- Kd: 0.04 nM
- koff: 3.71e-05 s⁻¹
- kon: 928000 M⁻¹ s⁻¹
B3: Ab23 (antibody, human IgG1, kappa, N297A, V domains shown)
VH: QSLEESGGDLVKPGASLTLTCKASGFSFSSGYYMCWVRQAPGKGLEWIACIYAGSGGSTFFANWAKGRFTISKTSSTTVTLQMTSLTAADTATYFCARDGGYAGYGYAFFNLWGPGTLVTVSS
VL: DVVMTQTPASVSEPVGGTVTIKCQASERIYSGLAWYQQKPGQPPKLLIYGASTLASGVPSRFKGSGSGTDFTLTISDLECDDAAIYYCQCTYYGSSYPNVFGGGTEVVVKR
notes: also called antibody Ab23

- Kd: 0.09 nM
- koff: 6.16e-05 s⁻¹
- kon: 684000 M⁻¹ s⁻¹
B4: Ab24 (antibody, human IgG1, kappa, N297A, V domains shown)
VH: B3 VH
VL: B3 VL with C90A
notes: also called antibody Ab24
